Assay results published in patent US20260374864 (published 2026).
Numbering of substitutions follows the chain as printed.

B1: CD22-mAb-4 (antibody, V domains shown)
VH: QVQLVESGGGVVQPGRSLRLSCAASGFTFSSYGMHWVRQAPGKGLEWVAIIYYDGSKKYYADSVKGRFTISRDNSKNTLYLQMNSLRAEDTAVYYCARELTGDAFDIWGQGTKVTVSS
VL: EIVLTQSPDFQSVTPKEKVTITCRASQSIGSSLHWYQQKPDQSPKLLIKYASQSFSGVPSKFIGSGSGTDFTLTINSLEAEDAATFYCHQSSTLPYTFGQGTKLEIK
B2: CD22-mAb-2 (antibody, V domains shown)
VH: QVTLRESGPALVKPTQTLTLTCTFSGISLTTSGMCVSWIRQPPGKALEWLALIDWDGDNYYSTSLKTRLTISKDTSKNQVVLTMASMDPVDTATYYCARMGYTYGYDAFDIWGQGTMVTVSS
VL: EIVLTQSPEFQSVTPTEKVTITCRASQSIGSLLHWYQQKPDQSPKLLIKFASQSLSGVPSRFSGSGSGTDFTLTINSLEAEDAATYYCHQSRSLPFTFGPGTKVDIN
B3: CD22-mAb-1 (antibody, V domains shown)
VH: QVQLVQSGAEVKKPGASVKVSCKASGYTFTGYYIHWVRQAPGQGLEWMGWINPNSGGTNYAQKFQGRVTMTRDTSIGTAYMELSRLRSDDTAIYYCTREDTWNYIDYWGQGTLVTVSS
VL: DIQMTQSPSSLSASVGDRVTITCRASQSISSHLNWYQQKPGKAPKLLIYAASSLHSGVPSRFSGSGSGTDFTLTISSLQPEDFATYCCQQSYSTPRTFGQGTKVEIK
B4: CD22-mAb-3 (antibody, V domains shown)
VH: QVTLRESGPALVKTTQTLTLTCTFSGFSLSTSGMCVSWIRQPPGKALEWLALIDWDDDKYYSTSLKTRLTISKDTSKSQVVLTMTSMDPVDTATYYCARIRYIYGYDYFDYWGQGTLVTVSS
VL: B3 VL with S28R, H32Q, H55Q, D70E, F83I, S91T, T94K, R96I, K103R, V104L

Biological target: human CD22, His-tagged recombinant (human, UniProt P20273)
Sequence (P20273 20-687): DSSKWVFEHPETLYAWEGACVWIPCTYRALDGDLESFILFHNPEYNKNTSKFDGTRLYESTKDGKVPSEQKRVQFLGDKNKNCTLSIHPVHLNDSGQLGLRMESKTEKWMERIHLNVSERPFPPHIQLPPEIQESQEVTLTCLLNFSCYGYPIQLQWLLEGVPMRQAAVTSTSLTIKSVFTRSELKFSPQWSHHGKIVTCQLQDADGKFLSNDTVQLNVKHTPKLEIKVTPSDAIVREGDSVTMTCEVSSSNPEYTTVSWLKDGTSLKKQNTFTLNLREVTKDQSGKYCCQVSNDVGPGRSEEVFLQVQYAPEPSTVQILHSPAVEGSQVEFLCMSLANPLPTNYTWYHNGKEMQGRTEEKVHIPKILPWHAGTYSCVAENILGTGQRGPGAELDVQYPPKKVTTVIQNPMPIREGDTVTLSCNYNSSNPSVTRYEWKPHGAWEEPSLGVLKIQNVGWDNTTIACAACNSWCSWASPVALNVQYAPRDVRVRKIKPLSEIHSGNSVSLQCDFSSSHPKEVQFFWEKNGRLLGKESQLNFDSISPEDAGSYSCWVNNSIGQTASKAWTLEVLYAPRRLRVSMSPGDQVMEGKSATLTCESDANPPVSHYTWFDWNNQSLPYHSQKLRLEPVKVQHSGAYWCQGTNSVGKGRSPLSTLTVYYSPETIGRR
Assay: SPR

Binder	Kd [nM]
B1	2.59
B2	0.358
B3	0.0377
B4	1.7
